B1: Protein BRASSINOSTEROID … 1 (Arabidopsis thaliana (Mouse-ear cress)), O22476 (parent)
chain: MKTFSSFFLSVTTLFFFSFFSLSFQASPSQSLYREIHQLISFKDVLPDKNLLPDWSSNKNPCTFDGVTCRDDKVTSIDLSSKPLNVGFSAVSSSLLSLTGLESLFLSNSHINGSVSGFKCSASLTSLDLSRNSLSGPVTTLTSLGSCSGLKFLNVSSNTLDFPGKVSGGLKLNSLEVLDLSANSISGANVVGWVLSDGCGELKHLAISGNKISGDVDVSRCVNLEFLDVSSNNFSTGIPFLGDCSALQHLDISGNKLSGDFSRAISTCTELKLLNISSNQFVGPIPPLPLKSLQYLSLAENKFTGEIPDFLSGACDTLTGLDLSGNHFYGAVPPFFGSCSLLESLALSSNNFSGELPMDTLLKMRGLKVLDLSFNEFSGELPESLTNLSASLLTLDLSSNNFSGPILPNLCQNPKNTLQELYLQNNGFTGKIPPTLSNCSELVSLHLSFNYLSGTIPSSLGSLSKLRDLKLWLNMLEGEIPQELMYVKTLETLILDFNDLTGEIPSGLSNCTNLNWISLSNNRLTGEIPKWIGRLENLAILKLSNNSFSGNIPAELGDCRSLIWLDLNTNLFNGTIPAAMFKQSGKIAANFIAGKRYVYIKNDGMKKECHGAGNLLEFQGIRSEQLNRLSTRNPCNITSRVYGGHTSPTFDNNGSMMFLDMSYNMLSGYIPKEIGSMPYLFILNLGHNDISGSIPDEVGDLRGLNILDLSSNKLDGRIPQAMSALTMLTEIDLSNNNLSGPIPEMGQFETFPPAKFLNNPGLCGYPLPRCDPSNADGYAHHQRSHGRRPASLAGSVAMGLLFSFVCIFGLILVGREMRKRRRKKEAELEMYAEGHGNSGDRTANNTNWKLTGVKEALSINLAAFEKPLRKLTFADLLQATNGFHNDSLIGSGGFGDVYKAILKDGSAVAIKKLIHVSGQGDREFMAEMETIGKIKHRNLVPLLGYCKVGDERLLVYEFMKYGSLEDVLHDPKKAGVKLNWSTRRKIAIGSARGLAFLHHNCSPHIIHRDMKSSNVLLDENLEARVSDFGMARLMSAMDTHLSVSTLAGTPGYVPPEYYQSFRCSTKGDVYSYGVVLLELLTGKRPTDSPDFGDNNLVGWVKQHAKLRISDVFDPELMKEDPALEIELLQHLKVAVACLDDRAWRRPTMVQVMAMFKEIQAGSGIDSQSTIRSIEDGGFSTIEMVDMSIKEVPEGKL
partner: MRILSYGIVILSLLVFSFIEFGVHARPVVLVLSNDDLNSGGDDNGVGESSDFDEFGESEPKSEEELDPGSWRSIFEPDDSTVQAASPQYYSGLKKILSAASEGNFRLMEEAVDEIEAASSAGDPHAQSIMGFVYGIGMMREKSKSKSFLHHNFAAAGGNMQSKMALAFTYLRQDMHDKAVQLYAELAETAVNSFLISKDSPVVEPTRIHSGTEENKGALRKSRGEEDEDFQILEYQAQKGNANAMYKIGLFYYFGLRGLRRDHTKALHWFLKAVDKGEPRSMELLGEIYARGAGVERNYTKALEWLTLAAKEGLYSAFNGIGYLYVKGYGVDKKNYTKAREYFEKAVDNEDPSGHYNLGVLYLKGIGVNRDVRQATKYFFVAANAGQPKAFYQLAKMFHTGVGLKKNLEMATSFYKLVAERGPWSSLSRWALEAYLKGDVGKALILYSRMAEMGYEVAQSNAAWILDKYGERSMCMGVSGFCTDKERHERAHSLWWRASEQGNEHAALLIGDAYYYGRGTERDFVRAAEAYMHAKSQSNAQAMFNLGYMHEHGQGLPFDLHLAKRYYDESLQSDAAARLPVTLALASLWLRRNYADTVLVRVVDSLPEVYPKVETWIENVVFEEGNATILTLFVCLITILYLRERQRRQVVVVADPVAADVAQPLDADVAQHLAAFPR

Variants of: B1
Conditions: with hrd3a_arath HRD3A

effect of a mutation on the interaction | Variant
increasing interaction strength | S662F
increasing interaction strength | C69Y

Source: IntAct's records for PubMed 21187394
